From patent publication US20250368742A1
Substitutions are numbered along the chain they refer to. Where two headings read alike, the source gives them in different places.

What was measured:
[1] = target: human MICB005 on cells (human); assay: flow cytometry on CHO-MICB005 cells; column HSA_1w (1 week in human serum at 37 C)
[2] = target: human MICB005 on cells (human); assay: flow cytometry on CHO-MICB005 cells; column Control_2w (control of the 2-week experiment)
[3] = target: human MICB005 on cells (human); assay: flow cytometry on CHO-MICB005 cells; column HSA_2w (2 weeks in human serum at 37 C)
[4] = target: human MICB005 on cells (human); assay: flow cytometry on CHO-MICB005 cells; column Control_1w (control of the 1-week experiment)
[5] = target: human MICA008 on cells (human); assay: flow cytometry, HeLa cells (MICA008)
[6] = target: human MICA004 on cells (human); assay: flow cytometry, CHO cells, panel headed MICA004
[7] = target: shed MICA004 polypeptide (human) (UniProt Q29983); assay: capture ELISA (anti-hFc / antibody / shed antigen / biotin-6D4)
[8] = target: shed MICA008 polypeptide (human) (UniProt Q29983); assay: as above
[9] = target: shed MICB005 polypeptide (human) (UniProt Q29980); assay: as above
[10] = target: shed MICA002 polypeptide (human) (UniProt Q29983); assay: as above
[11] = target: shed MICA004 polypeptide (human) (UniProt Q29983); assay: ELISA: antibody titrated on anti-hFc plate, shed MICA004 captured, detection NKG2D-His + anti-His-HRP
[12] = target: shed MICA004 polypeptide (human) (UniProt Q29983); assay: capture ELISA (anti-hFc / antibody / shed antigen / biotin-6D4); remark: listed apart in the source
[13] = target: shed MICA008 polypeptide (human) (UniProt Q29983); assay: as above; remark: listed apart in the source
[14] = target: shed MICB005 polypeptide (human) (UniProt Q29980); assay: as above; remark: listed apart in the source
[15] = target: shed MICA002 polypeptide (human) (UniProt Q29983); assay: as above; remark: listed apart in the source
[16] = target: shed MICA004 polypeptide (human) (UniProt Q29983); assay: as above; remark: listed apart in the source
[17] = target: shed MICA008 polypeptide (human) (UniProt Q29983); assay: as above; remark: listed apart in the source
[18] = target: shed MICB005 polypeptide (human) (UniProt Q29980); assay: as above; remark: listed apart in the source
[19] = target: shed MICA002 polypeptide (human) (UniProt Q29983); assay: as above; remark: listed apart in the source
[20] = target: shed MICA002 polypeptide (human) (UniProt Q29983); assay: ELISA: antibody titrated on anti-hFc plate, shed MICA002 captured, detection NKG2D-His + anti-His-HRP
[21] = target: shed MICA004 polypeptide (human) (UniProt Q29983); assay: capture ELISA (anti-hFc / antibody / shed antigen / biotin-6D4); remark: listed apart in the source
[22] = target: shed MICA008 polypeptide (human) (UniProt Q29983); assay: as above; remark: listed apart in the source
[23] = target: shed MICB005 polypeptide (human) (UniProt Q29980); assay: as above; remark: listed apart in the source
[24] = target: shed MICA002 polypeptide (human) (UniProt Q29983); assay: as above; remark: listed apart in the source

B1: h36B3GS (antibody, V domains shown)
VH: QVQLVQSGAEVKKPGASVKVSCKASGYAFTKYNFYWVRQAPGQGLEWIGYIDPYFGGTVYNQKFKGKATLTVDKSTSTAYMELRSLRSDDTAVYYCATTDSYSLFTYWGQGTLVTVSS
VL: DIQMTQSPSSLSASVGDRVTITCRASQDISNYLNWYQQTPGKAVKLLIYYTSRLHSGVPSRFSGSGSGTDYTLTISSLQPEDIATYFCLQGNTLPFTFGQGTKLEIK
[1]
  EC50: 0.26 µg/mL
[2]
  EC50: 0.314 µg/mL
[3]
  EC50: 0.32 µg/mL
[4]
  EC50: 0.295 µg/mL

B2: h36B3GA (antibody, V domains shown)
VH: B1 VH with S101A
VL: B1 VL
[5]
  EC50 (read off the curve): 0.4 µg/mL
[6]
  EC50 (read off the curve): 0.5 µg/mL

B3: 1D5 (antibody, human IgG1, kappa, V domains shown)
VH: EIQLQQSGPELVKPGASVKVSCKASGYAFTSQNIYWVKQSHGKSLEWIGYIEPYNVVPMYNPKFKGKATLTVDKSSSSAYIHLNSLTSEDSAIYYCARSGSSNFDYWGQGTTLTVSS
VL: EIILTQSPTTMAASPGEKITITCSASSSISSHYLHWYQQKSGFSPKLLIYRTSNLASGVPARFSGSGSGTSYSLTIGTMEAEDVATYYCQQGSSLPLTFGAGTKVEIKR
[7]
  EC50: 0.035 µg/mL
  maxOD: 2.8
[8]
  EC50: 0.037 µg/mL
  maxOD: 1.67
[9]
  EC50: 0.043 µg/mL
  maxOD: 3.83
[10]
  EC50: 0.025 µg/mL
  maxOD: 4.5
[11]
  EC50: 0.056 µg/mL
[12]
  EC50: 0.02 µg/mL
  Max OD450: 2.76
[13]
  EC50: 0.03 µg/mL
  Max OD450: 0.41
[14]
  EC50: 0.02 µg/mL
  Max OD450: 2.81
[15]
  EC50: 0.02 µg/mL
  Max OD450: 3.42
[16]
  EC50: 0.018 µg/mL
  Max OD450: 1.94
[17]
  EC50: 0.035 µg/mL
  Max OD450: 1.39
[18]
  EC50: 0.035 µg/mL
  Max OD450: 1.54
[19]
  EC50: 0.032 µg/mL
  Max OD450: 1.86
[20]
  EC50: 0.071 µg/mL
[21]
  EC50: 0.023 µg/mL
  Max OD450: 2.01
[22]
  EC50: 0.024 µg/mL
  Max OD450: 1.26
[23]
  EC50: 0.026 µg/mL
  Max OD450: 1.43
[24]
  EC50: 0.019 µg/mL
  Max OD450: 1.93
